Data on 12 molecules can be found in patent publication US20240182547A1 (MOGAM INSTITUTE FOR BIOMEDICAL RESEARCH, published 2024).

Residue numbers refer to the chain shown, from its start.

B1: #6m (antibody, V domains shown)
VH: EVQLVESGGGLVKPGGSLRLSCAGSGFTFSSYTMHWVRQAPGKGLEWVSSITGGSSYVDYSASVKGRFTISRDNAQSSLYLQMNSLRAEDTAVYYCARDDYGSGSYSNWFDPWGQGTLVTVSS
VL: QSVLTQPPSASGTPGQRVTISCTGSSSNIGAGYDVHWYQQLPGAAPRLLMFGNSNRPSGVPDRFSGSKSGTSASLAITGLQADDEADYYCQSYDRSLSHVFGTGTKVTVLG
notes: Germline-edited (m) form of 2E7, light chain edited; IgG; also called 2E7 (modified)
B2: 2H2 (antibody, V domains shown)
VH: B1 VH with E1Q, E6Q, V12I, K13Q
VL: B1 VL with A10V, T13A, A44T, R47K, M50I, G52A, S54T, T71A
notes: IgG made in Expi293; also called #7
B3: 12A1 (antibody, V domains shown)
VH: B1 VH with V12I, K13Q
VL: B1 VL with A10V, T13A, N28D, A44T, R47K, M50I, G52A, S54T, T71A
notes: IgG made in Expi293; also called #8
B4: #51m (antibody, V domains shown)
VH: EVQLVQSGAEVKKPGASVKVSCKASGYTFTDYGLSWVRQAPGHGLEWMGWITAYNGDTNYAQKFQDRLSVTTDISTSTAYMELRSLKSDDTAVYYCARHVFCSGDGCYSGLGSWGQGTLVTVSS
VL: QSVLTQPPSASGAPGQRVIISCSGSSSNVGSNTVNWYQQLPGTAPKLLIYDKNERPSGVPDRFSASKSGTSSSLAIGGLRSEDEADYYCGTWDDNLNGWVFGGGTKLTVLG
notes: Germline-edited (m) form of 3E7, heavy chain edited; IgG; also called 3E7 (modified)
B5: 5E9 (antibody, V domains shown)
VH: QVQLVQSGPEVKKPGSSVKVSCKASGYTFGHYGISWVRQAPGQGLEWMAWISAYNGNTDSIQKVQGRVTMTTDTSTNTAYLELRSLRSDDTAVYYCVRDVPATGGAATADYWGQGTTVTVSS
VL: DVVMTQSPLSLPVTLGQPASISCRSSQSLVFSDGNTYLSWFQQRPGQSPRRLIYKVSNRDSGVPDRFSASGSGTDFTLKISRVEADDVGVYYCMQVTHWPRTFGQGTRLEIKR
notes: IgG made in Expi293; also called #60; 60
B6: 5C7 (antibody, V domains shown)
VH: B5 VH with V5Q, P9S, S16A, T117L
VL: B5 VL with T14P, F31H, N58D, A69G, D86E
notes: IgG made in Expi293; also called #62; 62
B7: #62m (antibody, V domains shown)
VH: B5 VH with P9A, S16A, T117L
VL: B5 VL with T14P, F31H, N58D, A69G, D86E
notes: Germline-edited (m) form of 5C7, heavy chain edited; IgG; also called 5C7 (modified)
B8: 5C9 (antibody, V domains shown)
VH: B5 VH with P9S, S16A
VL: B5 VL with R108K
notes: IgG made in Expi293; also called #61; 61
B9: 8A11 (antibody, V domains shown)
VH: B5 VH with P9S, S16A, T117L
VL: B5 VL with R24K, Q27R, F31H, R108K
notes: IgG made in Expi293; also called #63; 63
B10: 9H4 (antibody, V domains shown)
VH: QVQLVQSGGGLVQPGGSLRISCTASGFTFRNYEMNWVRQAPGKGLEWVAYISSSGSSRYYADSVKGRFTISRDNAKNSLFLQMNSLRAEDMAVYYCARTDDGSSWFVSTSSFYGMDVWGQGTTVTVSS
VL: EIVLTQSPGIQSLSPGETATLSCRASESISSSYFAWYQQKPGQAPRLLIYGASSRASGIPDRFSGSGSGTDFTLTISRLEPEDFAVYYCQQYGSSPPITFGQGTRLEIKR
notes: IgG made in Expi293; also called #52; 52
B11: #52m (antibody, V domains shown)
VH: B10 VH with Q6E
VL: B10 VL
notes: Germline-edited (m) form of 9H4, heavy chain edited; IgG; also called 9H4 (modified)
B12: D25 (antibody, V domains shown)
VH: QVQLVQSGAEVKKPGSSVMVSCQASGGPLRNYIINWLRQAPGQGPEWMGGIIPVLGTVHYAPKFQGRVTITADESTDTAYIHLISLRSEDTAMYYCATETALVVSTTYLPHYFDNWGQGTLVTVSS
VL: DIQMTQSPSSLSAAVGDRVTITCQASQDIVNYLNWYQQKPGKAPKLLIYVASNLETGVPSRFSGSGSGTDFSLTISSLQPEDVATYYCQQYDNLPLTFGGGTKVEIK

The target of the assay is DS-Cav1 (RSV F-protein, pre-form, in-house) (respiratory syncytial virus (RSV), UniProt P03420 26-513). As to the kind of experiment: ELISA, coated DS-Cav1, IgG titrated.
Sequence of DS-Cav1 (RSV F-protein, pre-form, in-house) (P03420 26-524): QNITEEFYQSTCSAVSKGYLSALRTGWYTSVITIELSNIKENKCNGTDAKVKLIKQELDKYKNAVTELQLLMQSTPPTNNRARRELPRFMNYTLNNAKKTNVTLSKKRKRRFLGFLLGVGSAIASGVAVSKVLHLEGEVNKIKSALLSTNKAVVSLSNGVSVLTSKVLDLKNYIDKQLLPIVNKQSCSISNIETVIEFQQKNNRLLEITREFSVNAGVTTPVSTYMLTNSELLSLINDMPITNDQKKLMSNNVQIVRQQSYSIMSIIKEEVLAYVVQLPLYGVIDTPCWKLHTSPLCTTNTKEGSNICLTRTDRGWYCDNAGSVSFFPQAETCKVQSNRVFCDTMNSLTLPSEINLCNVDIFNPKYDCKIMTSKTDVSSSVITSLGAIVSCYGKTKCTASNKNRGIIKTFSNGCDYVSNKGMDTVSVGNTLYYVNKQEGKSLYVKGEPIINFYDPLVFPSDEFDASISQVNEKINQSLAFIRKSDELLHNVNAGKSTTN
For B1, the Kd was approximately 2.34 nM. As for B2, the figure is approximately 0.44 nM; as for B3, approximately 1.66 nM. As for B4, the Kd is approximately 1.26 nM. With B5, the Kd is approximately 1.31 nM. B6 returned a Kd of approximately 0.84 nM. As for B7, the figure is approximately 1.27 nM; as for B8, approximately 0.8 nM. In the case of B9 it was approximately 0.69 nM.

Molecule B10 yielded a Kd of approximately 0.89 nM. In the case of B11 it was approximately 0.89 nM; in that of B12, approximately 0.73 nM.
